The target in this data set is T1, ZFP-CRP Del 180 (CRP 1-180 fused to human zinc fingers ZFP1/ZFP2) (Escherichia coli / Homo sapiens) (UniProt P0ACJ8).
T1 sequence: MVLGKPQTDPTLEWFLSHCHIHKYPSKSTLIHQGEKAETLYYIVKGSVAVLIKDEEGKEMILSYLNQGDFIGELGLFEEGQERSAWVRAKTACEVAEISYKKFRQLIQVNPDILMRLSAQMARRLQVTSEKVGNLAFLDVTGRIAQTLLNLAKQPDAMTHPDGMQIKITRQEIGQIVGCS
The data set can be described thus: cell_activity.

Where the note is “E. coli EGFP reporter without IPTG, 2-fold with 1 mM IPTG, assignment of SEQ 7 to pEGFP-A inferred”, “ATCGATAAGCTTGCGGCGGGGGCGGCGGGGACTCCCCATCCCCCTGTTGACAATTAATCATCGGCTCGTATAATGTGTGGAATTGTGAGCGGATAACAATTTCACACAGGAAACAGGATCAAATTATGCCTGTCGAC (double strand)” had an activity (fold activation) of 3.
In the case of “ATCGATAAGCTTACTCCCCATCCCCCTGTTGACAATTAATCATCGGCTCGTATAATGTGTGGAATTGTGAGCGGATAACAATTTCGCGGCGGGGGCGGCGGGGACACAGGAAACAGGATCAAATTATGCCTGTCGAC (double strand)”, the activity (fold repression) (E. coli EGFP reporter with 1 mM IPTG, assignment of SEQ 8 to pEGFP-R inferred) came to 1.5.

Values taken from patent publication US20100136663.
